Values quoted from earlier work, collected in article PMC6442720.

Target: laminin 10 (Homo sapiens) (UniProt O15230)

integrin α3β1 (from UniProt P26006)
Kd: 7.9 nM
